From the supplement of paper PMC10126150
± gives the standard deviation of the averaged measurements.

Test system: ATP
Assay: switch fluorescence ratio, 500 uM ATP over buffer (Cy3 cluster intensity, sum of 5 cycles each) (fold (ratio)); higher = stronger signal-on switching upon ATP binding; sequences stand for … in TCGTCGGCAGCGTCAGATGTGTATAAGAGACAGTTTTTTTTTTTTTTTTTTTTTTTTT…TC
Conditions: aptamer strand: ATP DNA aptamer (quencher-CACCTGGGGGAGTATTGCGGAGGAAGG + anchor), 100 nM annealed; ATP concentration: 500 uM
Method in brief: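 Between each of five buffer/ATP cycles, the flow-cell was stripped with NaOH and re-annealed. Each cycle imaged Cy3-labelled switching-strand clusters, annealed to 100 nM quencher-labelled ATP aptamer on a modified Illumina MiSeq flow-cell, first in selection buffer and then after 15 min with 500 uM ATP at 22 °C. The fluorescence ratio is summed target-cycle over summed buffer-cycle Cy3 intensity per cluster, averaged per switch-domain sequence, with clusters outside 100-1000 RFU excluded.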
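Note: ATP exposure 15 min at 22 °C before imaging.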

TCATCGCTTT
switch fluorescence ratio: 1.08 ± 0.021

GGCATGTTAG
switch fluorescence ratio: 0.9847 ± 0.009

CCGGATGGTG
switch fluorescence ratio: 1.017 ± 0.0044

CAAATAAACC
switch fluorescence ratio: 1.03 ± 0.018

GGGGGAGAGG
switch fluorescence ratio: 0.99 ± 0.029

TCATTCGGAG
switch fluorescence ratio: 1.02 ± 0.014

TTTGAGTTTG
switch fluorescence ratio: 1.009 ± 0.0056

ATTTTAGGGG
switch fluorescence ratio: 0.983 ± 0.035

AGGTTGAAAG
switch fluorescence ratio: 0.974 ± 0.035

AGGGGGGAGA
switch fluorescence ratio: 0.994 ± 0.026

GCAAGATTTA
switch fluorescence ratio: 1.01 ± 0.019

AAGACGGGCT
switch fluorescence ratio: 1.01 ± 0.037

GATGCTTTTT
switch fluorescence ratio: 1.02 ± 0.018

GGTAAATAAG
switch fluorescence ratio: 0.961 ± 0.018

ATGATTGCGA
switch fluorescence ratio: 1.01 ± 0.061

ATGGTCATGT
switch fluorescence ratio: 0.9943 ± 0.0072

TTCGGGGACG
switch fluorescence ratio: 0.969 ± 0.052

TTAATACCGC
switch fluorescence ratio: 1.12 ± 0.022

AGGCGGTGCG
switch fluorescence ratio: 1.02 ± 0.03

GGGGTGTTCT
switch fluorescence ratio: 1.02 ± 0.045

CGGTAGTCAG
switch fluorescence ratio: 0.9983 ± 0.008

TCGCTTATCG
switch fluorescence ratio: 1.02 ± 0.072

AGTCCGGGGT
switch fluorescence ratio: 1.04 ± 0.025

GGCGATTGGG
switch fluorescence ratio: 0.99 ± 0.026

GCGTTCACGG
switch fluorescence ratio: 0.988 ± 0.026

CGGAGTGGTA
switch fluorescence ratio: 1.09 ± 0.014

ATAACAGGAT
switch fluorescence ratio: 0.986 ± 0.033

CGGAATGATA
switch fluorescence ratio: 1 ± 0.018

GCGGTCAAAC
switch fluorescence ratio: 1.06 ± 0.036

AGCCAGATTC
switch fluorescence ratio: 0.975 ± 0.036

GGTGTTAGAC
switch fluorescence ratio: 0.976 ± 0.029

TATCGTCTAC
switch fluorescence ratio: 1.015 ± 0.0033

ACCTTTTCTT
switch fluorescence ratio: 1 ± 0.011

CCTCTAAGTT
switch fluorescence ratio: 1.27 ± 0.054

TATTATGGAG
switch fluorescence ratio: 0.988 ± 0.021

AGGTGTTATC
switch fluorescence ratio: 0.9933 ± 0.0015

CTGGATGGAG
switch fluorescence ratio: 0.9934 ± 0.0047

TTTTTGCGAT
switch fluorescence ratio: 0.9982 ± 0.0046

ATGTTGAACT
switch fluorescence ratio: 0.99 ± 0.002

ACATTATAAT
switch fluorescence ratio: 1.041 ± 0.0056

TATGGGCGTT
switch fluorescence ratio: 1 ± 0.011

ATGTTTGATT
switch fluorescence ratio: 0.999 ± 0.047

AAGGCTAGGA
switch fluorescence ratio: 1 ± 0.036

AACGGGTGCA
switch fluorescence ratio: 0.9896 ± 0.0011

ACAGAAGCTT
switch fluorescence ratio: 1.03 ± 0.015

CATATGCTGC
switch fluorescence ratio: 1.0589 ± 0.00039

TCACGGATGT
switch fluorescence ratio: 1.04 ± 0.012

GAACGGGGCG
switch fluorescence ratio: 1.01 ± 0.099

ATCTGGGAGT
switch fluorescence ratio: 1.014 ± 0.00032

TCCAGTTATT
switch fluorescence ratio: 1 ± 0.019

GGTATGGGTC
switch fluorescence ratio: 0.947 ± 0.034

GTGATATGAG
switch fluorescence ratio: 1.01 ± 0.036

ATATAGTTTG
switch fluorescence ratio: 1.001 ± 0.0031

CGGTTCGGGT
switch fluorescence ratio: 0.993 ± 0.013

TGGAAAGGAG
switch fluorescence ratio: 1.02 ± 0.013

TTTATACTCT
switch fluorescence ratio: 1.08 ± 0.026

TCAGGGGATC
switch fluorescence ratio: 1.01 ± 0.017

CCGATGGTCT
switch fluorescence ratio: 1.25 ± 0.072

AATCTTGGGC
switch fluorescence ratio: 0.9771 ± 0.0096

TACTTCCTCC
switch fluorescence ratio: 3.8 ± 0.44

TCTAAGAGTC
switch fluorescence ratio: 0.975 ± 0.039

GTTCAAATGA
switch fluorescence ratio: 0.987 ± 0.017

CGTGAAAGTG
switch fluorescence ratio: 0.991 ± 0.019

CAGCAACATG
switch fluorescence ratio: 1.04 ± 0.024

TTCTCTGGGG
switch fluorescence ratio: 1.025 ± 0.0071

ACTTTTGGCG
switch fluorescence ratio: 1 ± 0.071

TCAGATGGGG
switch fluorescence ratio: 1.03 ± 0.021

TATAGTTCGG
switch fluorescence ratio: 1.01 ± 0.013

TTTATGGGGA
switch fluorescence ratio: 1 ± 0.02

TTCAAGGGGA
switch fluorescence ratio: 1.06 ± 0.13

ACAGCGGGGT
switch fluorescence ratio: 1 ± 0.021

ATGGTCAGAT
switch fluorescence ratio: 0.994 ± 0.027

ACAGGTAGCT
switch fluorescence ratio: 1.06 ± 0.056

ACTGATCATG
switch fluorescence ratio: 1.02 ± 0.028

GGGCATGGAA
switch fluorescence ratio: 0.969 ± 0.018

AAATATTTAC
switch fluorescence ratio: 1.12 ± 0.11

TCTTTACGGT
switch fluorescence ratio: 1.04 ± 0.045

TTCCAGGAGC
switch fluorescence ratio: 0.946 ± 0.091

TTAGGTAACG
switch fluorescence ratio: 0.977 ± 0.027

GTTAATTAGC
switch fluorescence ratio: 1.03 ± 0.041

AATGAGTGTG
switch fluorescence ratio: 0.9805 ± 0.0029

ACTGTGGGCA
switch fluorescence ratio: 1.01 ± 0.02

CCGCTGGATG
switch fluorescence ratio: 1.202 ± 0.011

TTTATGAAAA
switch fluorescence ratio: 1.025 ± 0.0066

AGCCAGAGAC
switch fluorescence ratio: 1.07 ± 0.036

ATGCAGAATT
switch fluorescence ratio: 0.988 ± 0.017

CGAAGTGGCC
switch fluorescence ratio: 1.02 ± 0.016

TAAGGGTACG
switch fluorescence ratio: 1.03 ± 0.058

TATCATGTCG
switch fluorescence ratio: 0.986 ± 0.031

TTTATTTGGT
switch fluorescence ratio: 1.03 ± 0.041

CGGGTATGTA
switch fluorescence ratio: 1 ± 0.0022

AAGGCGCGTG
switch fluorescence ratio: 1.01 ± 0.045

TATGCGTTGG
switch fluorescence ratio: 1.007 ± 0.0024

TTAATTAAGT
switch fluorescence ratio: 0.987 ± 0.04

CGGGGGCGAA
switch fluorescence ratio: 0.996 ± 0.05

GATGTTATTA
switch fluorescence ratio: 0.979 ± 0.038

CTTTTATGGG
switch fluorescence ratio: 0.993 ± 0.023

TGAGGGTACA
switch fluorescence ratio: 0.984 ± 0.017

CTTTTATCAC
switch fluorescence ratio: 1.25 ± 0.43

GGTAGTCCGT
switch fluorescence ratio: 1.03 ± 0.016
